US20040009511A1, “Identification of compounds which stimulate bone formation using a cell-based screening assay targeting BMP signaling” (priority 2002, published 2004)

Key:
[1] = test system: 9×SBE-6×OSE2-OC-luc reporter construct in 2T3 C-17 cells; assay: Luciferase assay, 9×SBE-6×OSE2-OC-luc reporter stably transfected in 2T3 clone C-17; assay type: cell-based; parameters: Luciferase Activity: unit not given here; details: for Effect on luciferase activity of the reporter construct: 2T3 C-17 cells
Procedure: (§1) An oligonucleotide containing 9 copies of Smad1 response element (9×SBE) and 6 copies of Cbfa1 response element (6×OSE2) was synthesized in the DNA laboratory at University of Texas Health Science Center at San Antonio. The osteocalcin basal promoter (OC, −155/+1) was amplified by Polymerase Chain Reaction (PCR) using mouse genomic DNA as a template and cloned into pGL3 vector. An 9×SBE-6×OSE2 oligonucleotide was cloned upstream of osteocalcin basal promoter.
(§2) C2C12 and 2T3 cells were plated in 6-well culture plates at densities of 4×10^5 and 2×10^5 cells/well and cultured with DMEM or α minimal essential medium (α MEM) supplemented with 10% FCS for 24 hours. A 9×SBE-6×OSE2-OC-luc-reporter construct (2 μg/well) was co-transfected with pcDNA3 empty vector (0.2 mg/well) in C2C12 and 2T3 cells using lipofactamine plus reagents (Gibco/BRL). Forty eight hours later, G418 (200 μg/ml) was added to the culture plates. Four weeks after G418 selection, the G418 resistant cells were plated in 96-well plates at the density of 1 cell/well and cloned by limiting dilution method.
(§3) C2C12 and 2T3 cells, in which 9×SBE-6×OSE2-OC-luc-reporter construct was stably transfected, were plated in 96-well culture plates at densities of 1×10^4 and 0.5×10^4 cells/well and cultured for 24 hours. The medium was changed to fresh medium supplemented with 2% FCS and different growth factors or hormone were added to culture medium for 24 hours or different compounds were added to culture medium for 2, 6, 12, 24 and 48 hours. The cell lysates were extracted and luciferase activities were determined by luciferase assay kit (Promega, Madison, Wis.) using a Luminometer.
(§4) At the end of the incubation, the cell lysates were extracted using lysis buffer and luciferase activities were measured using a luciferase assay kit (Promega).

[2] = test system: BMP production in MG-63 cells; assay: Conditioned medium of treated MG-63 cells tested on 2T3 C-17 reporter cells; assay type: cell-based, human; details: MG-63 treated 1 and 5 hours, washed, 24 hour CM; 2T3 C-17 treated with CM 48 hours
Procedure: 2T3 C-17 cells were then treated with said CM for 48 hours.

[3] = test system: 9×SBE-6×OSE2-OC-luc reporter construct in C2C12 C-10-62 cells; assay: Luciferase assay, 9×SBE-6×OSE2-OC-luc reporter stably transfected in C2C12 clone C-10-62; assay type: cell-based; details: 24 hours
Procedure: as §1, §2, §3, §4

[4] = test system: 9×SBE-6×OSE2-OC-luc reporter construct; assay: Luciferase assay, 9×SBE-6×OSE2-OC-luc reporter construct, cells not specified; assay type: cell-based; details: stimulation of luciferase activity; stated for C2C12 C-10-62 and 2T3 C-17 without distinction
Text: as §1, §3
Further, a reporter construct which contains multiple copies of both Smad1 (SBE) and Cbfa1 (OSE2) response elements (9×SBE-6×OSE2-OC-luc) was made.

[5] = Epoxomicin 0.0156 μM, cell type not given
[6] = Epoxomicin 0.0625 μM, cell type not given
[7] = Epoxomicin 0.125 μM, cell type not given
[8] = Epoxomicin 0.25 μM, cell type not given
[9] = Epoxomicin 0.5 μM, cell type not given
[10] = Epoxomicin 1 μM, cell type not given
[11] = BMP-7 1.95 ng/ml, 24 hours, 2T3 clone 17
[12] = BMP-7 3.91 ng/ml, 24 hours, 2T3 clone 17
[13] = BMP-7 7.81 ng/ml, 24 hours, 2T3 clone 17
[14] = BMP-7 15.625 ng/ml, 24 hours, 2T3 clone 17
[15] = BMP-7 31.25 ng/ml, 24 hours, 2T3 clone 17
[16] = BMP-7 62.5 ng/ml, 24 hours, 2T3 clone 17
[17] = BMP-7 125 ng/ml, 24 hours, 2T3 clone 17
[18] = BMP-7 250 ng/ml, 24 hours, 2T3 clone 17
[19] = BMP-7 500 ng/ml, 24 hours, 2T3 clone 17
[20] = BMP-7 1000 ng/ml, 24 hours, 2T3 clone 17
[21] = BMP-4 0.049 ng/ml, 24 hours, 2T3 clone 17
[22] = BMP-4 0.098 ng/ml, 24 hours, 2T3 clone 17
[23] = BMP-4 0.195 ng/ml, 24 hours, 2T3 clone 17
[24] = BMP-4 0.39 ng/ml, 24 hours, 2T3 clone 17
[25] = BMP-4 0.78 ng/ml, 24 hours, 2T3 clone 17
[26] = BMP-4 1.56 ng/ml, 24 hours, 2T3 clone 17
[27] = BMP-4 3.125 ng/ml, 24 hours, 2T3 clone 17
[28] = BMP-4 6.25 ng/ml, 24 hours, 2T3 clone 17
[29] = BMP-4 12.5 ng/ml, 24 hours, 2T3 clone 17
[30] = BMP-4 25 ng/ml, 24 hours, 2T3 clone 17
[31] = BMP-4 50 ng/ml, 24 hours, 2T3 clone 17
[32] = BMP-4 100 ng/ml, 24 hours, 2T3 clone 17

`CC[C@H](C)[C@H](NC(=O)[C@H]([C@@H](C)CC)N(C)C(C)=O)C(=O)N[C@H](C(=O)N[C@@H](CC(C)C)C(=O)[C@@]1(C)CO1)[C@@H](C)O` [Epoxomicin, epoxomicin, reference compound] was tested, and the “Luciferase Activity” value [1, 5] was 0.041, the “Luciferase Activity (fold increase)” value [1, 5] was 1.0 fold and the “Luciferase Activity” value [1, 6] was 0.064. For the same molecule, the “Luciferase Activity (fold increase)” value [1, 6] was 1.6 fold, the “Luciferase Activity” value [1, 7] was 0.098 and the “Luciferase Activity (fold increase)” value [1, 7] was 2.4 fold. For the same molecule, the “Luciferase Activity” value [1, 8] was 0.142, the “Luciferase Activity (fold increase)” value [1, 8] was 3.5 fold and the “Luciferase Activity” value [1, 9] was 0.153. For the same molecule, the “Luciferase Activity (fold increase)” value [1, 9] was 3.7 fold, the “Luciferase Activity” value [1, 10] was 0.120 and the “Luciferase Activity (fold increase)” value [1, 10] was 2.9 fold. For the same molecule, the “Effect of 24 hour conditioned medium of treated MG-63 cells on the reporter construct” value [2] was “CM stimulated the reporter construct in a concentration-dependent manner”.

B1: BMP-7: Bone morphogenetic protein 7 (protein, UniProt P18075 293-431, looked up)
Bone morphogenetic protein 7: STGSKQRSQNRSKTPKNQEALRMANVAENSSSDQRQACKKHELYVSFRDLGWQDWIIAPEGYAAYYCEGECAFPLNSYMNATNHAIVQTLVHFINPETVPKPCCAPTQLNAISVLYFDDSSNVILKKYRNMVVRACGCH
B1 was tested, and the “Effect on luciferase activity of the reporter construct” value (shortened to “Effect on luciferase activity”) [3] was “stimulated luciferase activity in a dose-dependent manner”, the “Effect on luciferase activity” value ([1]; 24 hours) was “stimulated luciferase activity in a dose-dependent manner” and the “Luciferase Activity” value [1, 11] was 0.076. For the same molecule, the “Luciferase Activity (fold increase)” value [1, 11] was 1.1 fold, the “Luciferase Activity” value [1, 12] was 0.090 and the “Luciferase Activity (fold increase)” value [1, 12] was 1.3 fold. For the same molecule, the “Luciferase Activity” value [1, 13] was 0.108, the “Luciferase Activity (fold increase)” value [1, 13] was 1.6 fold and the “Luciferase Activity” value [1, 14] was 0.148. For the same molecule, the “Luciferase Activity (fold increase)” value [1, 14] was 2.2 fold, the “Luciferase Activity” value [1, 15] was 0.216 and the “Luciferase Activity (fold increase)” value [1, 15] was 3.2 fold. The “Luciferase Activity” value [1, 16] was 0.374, the “Luciferase Activity (fold increase)” value [1, 16] was 5.6 fold and the “Luciferase Activity” value [1, 17] was 0.813. The “Luciferase Activity (fold increase)” value [1, 17] was 12.1 fold, the “Luciferase Activity” value [1, 18] was 1.425 and the “Luciferase Activity (fold increase)” value [1, 18] was 21.3 fold. For the same molecule, the “Luciferase Activity” value [1, 19] was 2.224, the “Luciferase Activity (fold increase)” value [1, 19] was 33.2 fold and the “Luciferase Activity” value [1, 20] was 3.404. The “Luciferase Activity (fold increase)” value [1, 20] was 50.8 fold and the Minimal effective dose [4] was 15 to 30 ng/mL.

B2: BMP-4: Bone morphogenetic protein 4 (protein, UniProt P12644 293-408, looked up)
Bone morphogenetic protein 4: SPKHHSQRARKKNKNCRRHSLYVDFSDVGWNDWIVAPPGYQAFYCHGDCPFPLADHLNSTNHAIVQTLVNSVNSSIPKACCVPTELSAISMLYLDEYDKVVLKNYQEMVVEGCGCR
For B2, the “Effect on luciferase activity” value [3] was “stimulated luciferase activity in a dose-dependent manner”, the “Effect on luciferase activity” value ([1]; 24 hours) was “stimulated luciferase activity in a dose-dependent manner” and the “Luciferase Activity” value [1, 21] was 0.0745. The “Luciferase Activity (fold increase)” value [1, 21] was 1.6 fold, the “Luciferase Activity” value [1, 22] was 0.111 and the “Luciferase Activity (fold increase)” value [1, 22] was 2.3 fold. The “Luciferase Activity” value [1, 23] was 0.141, the “Luciferase Activity (fold increase)” value [1, 23] was 2.9 fold and the “Luciferase Activity” value [1, 24] was 0.384. The “Luciferase Activity (fold increase)” value [1, 24] was 8.0 fold, the “Luciferase Activity” value [1, 25] was 0.597 and the “Luciferase Activity (fold increase)” value [1, 25] was 12.4 fold. The “Luciferase Activity” value [1, 26] was 0.821, the “Luciferase Activity (fold increase)” value [1, 26] was 17.1 fold and the “Luciferase Activity” value [1, 27] was 1.064. The “Luciferase Activity (fold increase)” value [1, 27] was 22.2 fold, the “Luciferase Activity” value [1, 28] was 1.256 and the “Luciferase Activity (fold increase)” value [1, 28] was 26.2 fold. The “Luciferase Activity” value [1, 29] was 1.534, the “Luciferase Activity (fold increase)” value [1, 29] was 32.0 fold and the “Luciferase Activity” value [1, 30] was 1.576. The “Luciferase Activity (fold increase)” value [1, 30] was 32.8 fold, the “Luciferase Activity” value [1, 31] was 1.887 and the “Luciferase Activity (fold increase)” value [1, 31] was 39.3 fold. For the same molecule, the “Luciferase Activity” value [1, 32] was 2.166, the “Luciferase Activity (fold increase)” value [1, 32] was 45.1 fold and the Minimal effective dose [4] was 0.1 to 0.2 ng/mL.
